These are literature values, as cited in article PMC3277744.

The data set deals with Bcl-XL (Homo sapiens) (UniProt Q07817).
Bcl-XL (Homo sapiens), sequence (Q07817 whole entry): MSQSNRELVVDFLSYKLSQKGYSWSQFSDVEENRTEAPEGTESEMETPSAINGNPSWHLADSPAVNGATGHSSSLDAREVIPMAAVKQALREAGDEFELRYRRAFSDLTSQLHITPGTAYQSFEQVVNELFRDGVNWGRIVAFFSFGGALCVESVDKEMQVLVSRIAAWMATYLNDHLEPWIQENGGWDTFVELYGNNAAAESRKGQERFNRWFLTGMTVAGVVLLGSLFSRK

Regarding p53 (from UniProt P04637), the Kd is 0.164 µM.
